From patent publication US20200216522A1 (DENALI THERAPEUTICS, published 2020) come the findings set out here.

Experiment [1] deals with T1, full-length human Tau (Tau441; 2N4R), recombinant (human, UniProt P10636 1-758).
T1 construct: made in E. coli, His6-Smt3 tag removed; biotinylated through amines for Octet and phage work; also called r-Tau; recombinant Tau
Briefly: Fab ELISA. As to the method:
(§1) Half-area ELISA plates (Costar™) were coated overnight at 4° C. with 25 μL per well of 0.5 μg/mL r-Tau or p-Tau. The plates were washed three times with PBST using a BioTek® plate washer. The plates were then blocked for one hour at room temperature with 100 μL per well of PBSA. After washing three times with PBST, the periplasmically-expressed Fabs were added ([…]) and the plates were incubated for one hour. The plates were subsequently washed three times with PBST, and 25 μL per well of PBSA containing a 1:5,000 dilution of HRP-conjugated rabbit anti-human kappa (obtained from Bethyl Laboratories) was added. The plates were incubated at room temperature for 30 minutes, then washed three times with PBST. The plates were developed by adding 25 μL per well of TMB substrate (obtained from Thermo Fisher) and quenched with 2N H₂SO₄. The signal was quantified on a BioTek® plate reader at A₄₅₀. Wells with signal greater than 5-fold over background for both r-Tau and p-Tau were considered positive and the clones were re-arrayed from the primary culture for confirmation of binding (by repeat of ELISA) and sequencing of the variable regions.
(§2) ELISAs were performed essentially as described above, but coating was performed using 1 μg/mL of each recombinant Tau species and using a 1:1 dilution (in PBS with 0.1% BSA, 0.05% Tween®) of Fab containing supernatant. The results of the ELISAs, showing Fab binding to cyno Tau and mouse Tau, as well as binding to phosphorylated full-length human Tau and the human Tau isoforms, are shown in Table 1 below.

The target of experiment [2] is T2, cynomolgus monkey Tau (cynomolgus monkey, UniProt P57786 2-459 (rhesus entry)).
T2 construct: also called cyno Tau; cyno-Tau
Briefly: Fab ELISA. As to the method: as §1, §2
For orientation: In an ELISA, binding on a coated surface is turned into a signal by an enzyme label.

Experiment [3] addresses mouse Tau (mouse, UniProt P10637 2-733). Briefly: Fab ELISA. As to the method:
as §1, §2

The target of experiment [4] is human Tau splice isoform 0N3R (Tau352) (human, UniProt P10636 1-758). Nature of the experiment: Fab ELISA. The method, then: as §1, §2
Experiment [5] has as its target human Tau splice isoform 0N4R (Tau383) (human, UniProt P10636 1-758). Briefly: Fab ELISA. The method, then:
as §1, §2

For experiment [6], the target named is human Tau splice isoform 1N3R (Tau381) (human, UniProt P10636 1-758). Briefly: Fab ELISA. As to the method:
as §1, §2

The target of experiment [7] is human Tau splice isoform 1N4R (Tau412) (human, UniProt P10636 1-758). Briefly: Fab ELISA. As to the method:
as §1, §2

Experiment [8] addresses human Tau splice isoform 2N3R (Tau410) (human, UniProt P10636 1-758). Briefly: Fab ELISA. As to the method:
as §1, §2

Experiment [9] addresses T3, C-terminal truncated human Tau (Tau(1-421)) (human, UniProt P10636 1-738).
T3 construct: also called 1-421 (2N4R)
Nature of the experiment: Fab ELISA. The method, then: as §1, §2

For experiment [10], the target named is T4, N-terminal truncated human Tau (Tau(50-441)) (human, UniProt P10636 50-758).
T4 construct: also called 50-441 (2N4R)
Nature of the experiment: Fab ELISA. As to the method: as §1, §2

Experiment [11] has as its target T5, hyperphosphorylated recombinant human Tau441 (p-Tau) (human, UniProt P10636 1-758, phosphorylated in vitro with PKA and GSK3beta; sites not listed).
T5 construct: also called p-Tau (2N4R); phosphorylated r-Tau
Briefly: Fab ELISA. The method, then: as §1, §2

Experiment [12] has as its target T1, full-length human Tau (Tau441; 2N4R), …. Nature of the experiment: SPR Biacore. Background: In SPR one partner is held on a chip, and binding of the other changes the refractive index at the surface.
For experiment [13] the target is unchanged. Nature of the experiment: SPR Biacore. As to the method:
(§3) IgG was purified with protein A affinity chromatography. The affinity of each hulC7 IgG variant for r-Tau was determined by surface plasmon resonance using a Biacore™ T200 instrument. Biacore™ Series S CM5 sensor chips were immobilized with monoclonal mouse anti-human IgG (Fc) antibody (Human antibody capture kit from GE Healthcare). Serial 3-fold dilutions of each hulC7 variant were injected at a flow rate of […]. Each sample was analyzed with 3-minute association and 10-minute dissociation. After each injection, the chip was regenerated using 3 M MgCl₂. Binding response was corrected by subtracting the RU from a flow cell capturing an irrelevant IgG at similar density. A 1:1 Languir model of simultaneous fitting of kₒₙ and koff was used for kinetics analysis.
This is another data set of the same source.

The target is the same in experiment [14]. Nature of the experiment: SPR Biacore. The source holds these as a separate data set.
The target is the same in experiment [15]. Nature of the experiment: SPR Biacore. The method, then: as §3
A further round of affinity maturation was performed by mutating certain amino acids in selected CDR-H1, CDR-L1, and CDR-L3 sequences from Table 9A, as well as the sequence of CDR-H2 (SEQ ID NO:23) of hulC7.v2. Sequence changes were identified in each CDR (Table 9B). Binding affinities were evaluated using Biacore™ (Table 10B).
This is another data set of the same source.

Read-outs that look alike come from different tables or passages of the source.

human Tau splice isoform 0N4R (Tau383), sequence (P10636 other isoform, or with tags, fused parts or gaps limits assumed): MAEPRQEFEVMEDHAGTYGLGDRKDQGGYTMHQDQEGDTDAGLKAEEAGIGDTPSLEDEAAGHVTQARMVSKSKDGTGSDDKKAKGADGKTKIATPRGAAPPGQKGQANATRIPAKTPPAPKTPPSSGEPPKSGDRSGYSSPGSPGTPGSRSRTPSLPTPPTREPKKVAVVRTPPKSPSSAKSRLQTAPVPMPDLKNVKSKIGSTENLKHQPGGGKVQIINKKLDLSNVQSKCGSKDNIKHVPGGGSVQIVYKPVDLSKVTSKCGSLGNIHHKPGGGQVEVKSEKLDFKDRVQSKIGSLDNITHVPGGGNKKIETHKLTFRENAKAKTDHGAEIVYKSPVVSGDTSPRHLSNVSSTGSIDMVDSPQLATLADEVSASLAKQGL
T1 sequence (P10636 other isoform, or with tags, fused parts or gaps limits assumed): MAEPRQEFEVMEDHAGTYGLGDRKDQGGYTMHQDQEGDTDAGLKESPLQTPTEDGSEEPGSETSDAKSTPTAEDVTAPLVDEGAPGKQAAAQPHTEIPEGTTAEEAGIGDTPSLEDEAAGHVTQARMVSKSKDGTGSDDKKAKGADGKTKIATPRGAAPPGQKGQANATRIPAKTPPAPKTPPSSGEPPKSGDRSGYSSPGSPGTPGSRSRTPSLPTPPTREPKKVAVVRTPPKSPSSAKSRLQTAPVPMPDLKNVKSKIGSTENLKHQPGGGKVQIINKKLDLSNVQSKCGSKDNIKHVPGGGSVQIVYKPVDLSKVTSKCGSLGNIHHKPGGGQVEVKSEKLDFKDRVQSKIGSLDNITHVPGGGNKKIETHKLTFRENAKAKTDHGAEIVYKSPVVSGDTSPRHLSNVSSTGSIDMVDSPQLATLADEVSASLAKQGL
mouse Tau, sequence (P10637 other isoform, or with tags, fused parts or gaps limits assumed): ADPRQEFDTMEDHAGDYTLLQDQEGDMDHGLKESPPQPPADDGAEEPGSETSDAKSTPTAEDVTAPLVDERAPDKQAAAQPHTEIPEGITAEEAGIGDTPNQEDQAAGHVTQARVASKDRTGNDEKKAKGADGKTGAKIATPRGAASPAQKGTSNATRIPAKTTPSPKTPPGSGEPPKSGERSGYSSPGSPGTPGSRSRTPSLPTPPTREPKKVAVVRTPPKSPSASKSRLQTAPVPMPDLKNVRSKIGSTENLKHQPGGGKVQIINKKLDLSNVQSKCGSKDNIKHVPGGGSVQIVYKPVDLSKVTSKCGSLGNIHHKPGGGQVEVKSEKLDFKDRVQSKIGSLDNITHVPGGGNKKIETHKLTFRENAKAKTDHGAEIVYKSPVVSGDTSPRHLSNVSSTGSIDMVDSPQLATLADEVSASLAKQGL
human Tau splice isoform 0N3R (Tau352), sequence (P10636 other isoform, or with tags, fused parts or gaps limits assumed): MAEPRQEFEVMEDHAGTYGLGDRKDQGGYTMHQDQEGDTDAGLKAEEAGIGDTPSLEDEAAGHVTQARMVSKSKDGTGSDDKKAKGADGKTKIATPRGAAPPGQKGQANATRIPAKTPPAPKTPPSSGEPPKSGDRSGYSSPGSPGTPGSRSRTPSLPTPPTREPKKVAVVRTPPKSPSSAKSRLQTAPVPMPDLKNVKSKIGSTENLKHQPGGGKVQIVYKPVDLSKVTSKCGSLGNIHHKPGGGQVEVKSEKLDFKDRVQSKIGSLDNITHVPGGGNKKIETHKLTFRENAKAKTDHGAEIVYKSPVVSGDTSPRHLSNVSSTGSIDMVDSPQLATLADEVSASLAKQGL
T4 sequence (P10636 other isoform, or with tags, fused parts or gaps limits assumed): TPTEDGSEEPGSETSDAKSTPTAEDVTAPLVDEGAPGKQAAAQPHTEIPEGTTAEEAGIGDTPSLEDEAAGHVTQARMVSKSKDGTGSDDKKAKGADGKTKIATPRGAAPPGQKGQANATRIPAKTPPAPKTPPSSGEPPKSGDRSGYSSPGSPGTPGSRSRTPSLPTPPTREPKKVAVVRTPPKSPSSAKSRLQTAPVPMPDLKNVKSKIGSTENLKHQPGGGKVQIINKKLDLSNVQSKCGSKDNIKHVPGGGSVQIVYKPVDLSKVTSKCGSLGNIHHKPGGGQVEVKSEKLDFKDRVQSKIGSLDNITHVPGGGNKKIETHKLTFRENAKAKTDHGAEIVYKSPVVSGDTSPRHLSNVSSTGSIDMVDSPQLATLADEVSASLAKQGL
human Tau splice isoform 1N4R (Tau412), sequence (P10636 other isoform, or with tags, fused parts or gaps limits assumed): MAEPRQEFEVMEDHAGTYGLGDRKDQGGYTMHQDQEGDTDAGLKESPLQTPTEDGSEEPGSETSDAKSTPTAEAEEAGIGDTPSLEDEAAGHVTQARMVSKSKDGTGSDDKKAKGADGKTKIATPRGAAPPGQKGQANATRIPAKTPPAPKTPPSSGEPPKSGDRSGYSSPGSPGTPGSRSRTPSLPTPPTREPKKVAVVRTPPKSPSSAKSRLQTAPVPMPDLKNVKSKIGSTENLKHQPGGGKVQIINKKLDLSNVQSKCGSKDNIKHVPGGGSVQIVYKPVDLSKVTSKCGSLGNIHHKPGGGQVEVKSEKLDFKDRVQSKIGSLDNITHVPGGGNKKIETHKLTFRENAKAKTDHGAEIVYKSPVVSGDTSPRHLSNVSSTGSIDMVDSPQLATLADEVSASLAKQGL
T2 sequence (P57786 other isoform, or with tags, fused parts or gaps limits assumed): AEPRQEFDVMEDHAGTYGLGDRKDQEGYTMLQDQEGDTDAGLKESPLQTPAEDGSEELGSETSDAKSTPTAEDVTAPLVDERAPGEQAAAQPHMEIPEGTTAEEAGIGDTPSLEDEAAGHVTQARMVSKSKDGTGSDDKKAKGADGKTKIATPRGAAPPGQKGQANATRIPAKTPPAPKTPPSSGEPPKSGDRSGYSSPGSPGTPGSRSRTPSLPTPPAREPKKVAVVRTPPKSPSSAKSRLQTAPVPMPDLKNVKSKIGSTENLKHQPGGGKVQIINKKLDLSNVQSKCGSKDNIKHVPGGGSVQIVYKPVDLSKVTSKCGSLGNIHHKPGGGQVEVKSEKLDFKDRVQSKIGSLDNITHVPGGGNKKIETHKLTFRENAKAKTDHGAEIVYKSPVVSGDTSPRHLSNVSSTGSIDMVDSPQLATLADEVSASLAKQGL
human Tau splice isoform 2N3R (Tau410), sequence (P10636 other isoform, or with tags, fused parts or gaps limits assumed): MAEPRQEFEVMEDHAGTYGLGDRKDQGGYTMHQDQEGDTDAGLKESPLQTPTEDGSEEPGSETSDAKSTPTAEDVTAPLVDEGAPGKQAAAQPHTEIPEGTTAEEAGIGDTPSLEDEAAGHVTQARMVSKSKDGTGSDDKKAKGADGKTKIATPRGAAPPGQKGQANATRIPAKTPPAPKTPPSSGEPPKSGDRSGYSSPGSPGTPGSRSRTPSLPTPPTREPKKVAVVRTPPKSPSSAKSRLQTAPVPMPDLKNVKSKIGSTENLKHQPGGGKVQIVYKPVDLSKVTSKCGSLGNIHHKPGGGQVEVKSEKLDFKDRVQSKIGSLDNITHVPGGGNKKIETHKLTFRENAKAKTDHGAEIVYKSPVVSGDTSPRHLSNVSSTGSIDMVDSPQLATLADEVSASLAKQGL
human Tau splice isoform 1N3R (Tau381), sequence (P10636 other isoform, or with tags, fused parts or gaps limits assumed): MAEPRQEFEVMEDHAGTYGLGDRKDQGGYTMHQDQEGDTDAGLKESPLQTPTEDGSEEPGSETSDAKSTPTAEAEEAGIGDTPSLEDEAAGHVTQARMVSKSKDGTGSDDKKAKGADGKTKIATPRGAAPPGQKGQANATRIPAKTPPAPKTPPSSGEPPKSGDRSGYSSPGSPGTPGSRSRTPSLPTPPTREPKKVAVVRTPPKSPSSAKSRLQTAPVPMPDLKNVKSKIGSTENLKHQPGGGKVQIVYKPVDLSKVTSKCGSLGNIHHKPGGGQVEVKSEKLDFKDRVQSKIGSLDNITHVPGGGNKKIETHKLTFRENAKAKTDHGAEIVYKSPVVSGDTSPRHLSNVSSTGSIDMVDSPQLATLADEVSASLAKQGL
T3 sequence (P10636 other isoform, or with tags, fused parts or gaps limits assumed): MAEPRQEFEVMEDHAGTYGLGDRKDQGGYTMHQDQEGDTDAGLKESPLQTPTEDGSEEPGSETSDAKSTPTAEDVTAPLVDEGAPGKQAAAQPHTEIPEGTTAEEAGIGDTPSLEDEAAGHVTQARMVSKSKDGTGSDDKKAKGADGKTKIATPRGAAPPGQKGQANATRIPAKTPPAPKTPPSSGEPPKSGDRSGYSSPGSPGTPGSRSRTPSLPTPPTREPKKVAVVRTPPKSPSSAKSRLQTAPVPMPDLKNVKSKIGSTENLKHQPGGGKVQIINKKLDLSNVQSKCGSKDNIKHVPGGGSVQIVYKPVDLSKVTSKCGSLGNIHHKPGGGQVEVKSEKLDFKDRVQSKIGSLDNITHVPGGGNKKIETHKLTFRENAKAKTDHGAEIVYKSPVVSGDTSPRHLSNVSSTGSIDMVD

B1: Clone 1C7 Fab (Fab, V domains shown)
VH: EVKLVESGGGLVKPGGSLKLSCAASGFTFSSYGMSWVRQTPEKRLEWVASISGDGGSYIHYADSVKGRFTISRDSAKNTLYLQMSSLRSEDTALYYCARLPYWGQGTLVTVSA
VL: DIVMTQSPSSLTVTAGEKVTMSCKSSQSLLNSGNQKNYLTWYQQKPGQPPKLLIYWASTRESGVPDRFTGSGSGTDFTLTISNVQSEDLAEYFCQQYNSYPLTFGAGTKLELKR
notes: crude periplasmic Fab; mouse V regions joined to human CH1 and human kappa constant
Take B1: the A450 avg. in experiment [1] came out at 2.73; in [2], 2.31; in [3] it was 0.06; in [4], 2.4; in [5], 2.66; in [6], 2.7. The A450 avg. in experiment [7] amounted to 2.69; in [8], 2.75; in experiment [9], 2.12; in [10], 2.3; in experiment [11] it was 2.24. The molecule further showed an A450 in [3] of 0.06.

B2: anti-Tau antibody 1C7/3C.35.21 (antibody, human IgG1, kappa, L234A L235A)
heavy 1: EVKLVESGGGLVKPGGSLKLSCAASGFTFSSYGMSWVRQTPEKRLEWVASISGDGGSYIHYADSVKGRFTISRDSAKNTLYLQMSSLRSEDTALYYCARLPYWGQGTLVTVSAASTKGPSVFPLAPSSKSTSGGTAALGCLVKDYFPEPVTVSWNSGALTSGVHTFPAVLQSSGLYSLSSVVTVPSSSLGTQTYICNVNHKPSNTKVDKKVEPKSCDKTHTCPPCPAPEAAGGPSVFLFPPKPKDTLMISRTPEVTCVVVDVSHEDPEVKFNWYVDGVEVHNAKTKPREEQYNSTYRVVSVLTVLHQDWLNGKEYKCKVSNKALGAPIEKTISKAKGQPREPQVYTLPPSRDELTKNQVSLWCLVKGFYPSDIAVWWESYGTEWSSYKTTPPVLDSDGSFFLYSKLTVTKEEWQQGFVFSCSVMHEALHNHYTQKSLSLSPGK
heavy 2: EVKLVESGGGLVKPGGSLKLSCAASGFTFSSYGMSWVRQTPEKRLEWVASISGDGGSYIHYADSVKGRFTISRDSAKNTLYLQMSSLRSEDTALYYCARLPYWGQGTLVTVSAASTKGPSVFPLAPSSKSTSGGTAALGCLVKDYFPEPVTVSWNSGALTSGVHTFPAVLQSSGLYSLSSVVTVPSSSLGTQTYICNVNHKPSNTKVDKKVEPKSCDKTHTCPPCPAPEAAGGPSVFLFPPKPKDTLMISRTPEVTCVVVDVSHEDPEVKFNWYVDGVEVHNAKTKPREEQYNSTYRVVSVLTVLHQDWLNGKEYKCKVSNKALGAPIEKTISKAKGQPREPQVYTLPPSRDELTKNQVSLSCAVKGFYPSDIAVEWESNGQPENNYKTTPPVLDSDGSFFLVSKLTVDKSRWQQGNVFSCSVMHEALHNHYTQKSLSLSPGK
light: DIVMTQSPSSLTVTAGEKVTMSCKSSQSLLNSGNQKNYLTWYQQKPGQPPKLLIYWASTRESGVPDRFTGSGSGTDFTLTISNVQSEDLAEYFCQQYNSYPLTFGAGTKLELKRTVAAPSVFIFPPSDEQLKSGTASVVCLLNNFYPREAKVQWKVDNALQSGNSQESVTEQDSKDSTYSLSSTLTLSKADYEKHKVYACEVTHQGLSSPVTKSFNRGEC
notes: two 1C7 Fab arms; LALAPG; also called Tau^1C7/3C.35.21
For B2, the Kd in experiment [12] was 0.4 nM.

B3: Clone 1A1 Fab (Fab, V domains shown)
VH: EVQLQQSGAELVRPGASVRLSCTASGFNIKDSLMHWLKQRPEQGLEWIGWIDPEDGETKYAPKFQDKATITADTSSNTAYLQLSSLTSEDTAIYYCTRRDWEGPWGQGTLVTVSA
VL: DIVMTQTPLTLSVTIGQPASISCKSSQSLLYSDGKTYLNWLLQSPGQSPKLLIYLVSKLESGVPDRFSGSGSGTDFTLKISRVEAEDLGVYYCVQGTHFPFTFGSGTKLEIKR
notes: as for B1
Turning to B3, the A450 avg. in experiment [1] amounted to 2.5; in experiment [2], 1.81; in experiment [3] it was 1.95; in experiment [4] it was 1.54; in experiment [5], 2.37; in [6], 2.59. Moreover, the A450 avg. in experiment [7] came out at 2.39; in [8] it was 2.52; in experiment [9], 1.52; in [10], 1.8; in experiment [11] it was 2.09.

B4: hu1C7.v2 (S49A) (antibody, V domains shown)
VH: EVQLLESGGGLVQPGGSLRLSCAASGFTFSSYGMSWVRQAPGKGLEWVASISGDGGSYIHYADSVKGRFTISRDNSKNTLYLQMNSLRAEDTAVYYCARLPYWGQGTLVTVSS
VL: DIVMTQSPDSLAVSLGERATINCKSSQSLLNSGNQKNYLTWYQQKPGQPPKLLIYWASTRESGVPDRFSGSGSGTDFTLTISSLQAEDVAVYYCQQYNSYPLTFGQGTKVEIKR
As to B4, the dissociation constant Kd in experiment [12] was approximately 1.6 nM; in [13], 1.5 nM; in experiment [14], 1.5 nM; in experiment [15] it was 1.45 nM. In addition, the “fold weaker binding than chimeric 1C7” value in [12] is approximately 2 fold. The values for the dissociation rate constant (koff) in experiment [13], in [14] and in experiment [15] were 0.0011 s⁻¹, 0.0011 s⁻¹ and 0.000851 s⁻¹, respectively. For the same molecule, the kon in [13] was found to be 760000 M⁻¹ s⁻¹; in experiment [14], 760000 M⁻¹ s⁻¹; in experiment [15], 585000 M⁻¹ s⁻¹.

B5: hu1C7.v1 (antibody, V domains shown)
VH: EVQLLESGGGLVQPGGSLRLSCAASGFTFSSYGMSWVRQAPGKGLEWVSSISGDGGSYIHYADSVKGRFTISRDNSKNTLYLQMNSLRAEDTAVYYCARLPYWGQGTLVTVSS
VL: DIVMTQSPDSLAVSLGERATINCKSSQSLLNSGNQKNYLTWYQQKPGQPPKLLIYWASTRESGVPDRFSGSGSGTDFTLTISSLQAEDVAVYYCQQYNSYPLTFGQGTKVEIKR
As for B5, in experiment [12], the dissociation constant (Kd) is approximately 1.6 nM and the “fold weaker binding than chimeric 1C7” value is approximately 2 fold.

B6: hu1C7.v4 (S49A, S75A) (antibody, V domains shown)
VH: EVQLLESGGGLVQPGGSLRLSCAASGFTFSSYGMSWVRQAPGKGLEWVASISGDGGSYIHYADSVKGRFTISRDNAKNTLYLQMNSLRAEDTAVYYCARLPYWGQGTLVTVSS
VL: DIVMTQSPDSLAVSLGERATINCKSSQSLLNSGNQKNYLTWYQQKPGQPPKLLIYWASTRESGVPDRFSGSGSGTDFTLTISSLQAEDVAVYYCQQYNSYPLTFGQGTKVEIKR
As for B6, in experiment [12], the dissociation constant (Kd) is approximately 1.6 nM and the “fold weaker binding than chimeric 1C7” value was approximately 2 fold. Besides, in experiment [13], the Kd stood at 1.8 nM, the koff came to 0.0011 s⁻¹ and the on-rate (kon) was 660000 M⁻¹ s⁻¹.

B7: hu1C7.v3 (S75A) (antibody, V domains shown)
VH: EVQLLESGGGLVQPGGSLRLSCAASGFTFSSYGMSWVRQAPGKGLEWVSSISGDGGSYIHYADSVKGRFTISRDNAKNTLYLQMNSLRAEDTAVYYCARLPYWGQGTLVTVSS
VL: DIVMTQSPDSLAVSLGERATINCKSSQSLLNSGNQKNYLTWYQQKPGQPPKLLIYWASTRESGVPDRFSGSGSGTDFTLTISSLQAEDVAVYYCQQYNSYPLTFGQGTKVEIKR
For B7, in experiment [12], the dissociation constant Kd is approximately 1.6 nM and the “fold weaker binding than chimeric 1C7” value is approximately 2 fold. In addition, in [13], the Kd worked out at 1.7 nM, the off-rate constant (koff) was 0.0012 s⁻¹ and the kon turned out to be 730000 M⁻¹ s⁻¹.

B8: Clone 1A5 Fab (Fab, V domains shown)
VH: EVQLQQSGAELVRPGASVKLSCTASGFNIKDSLIHWVKQRPEQGLEWIGWIDPEDGETKYAPKFQDKATKTADTSSNTAYLQLSSLTSEDTAIYYCASGEWDYWGQGTSVTVSS
VL: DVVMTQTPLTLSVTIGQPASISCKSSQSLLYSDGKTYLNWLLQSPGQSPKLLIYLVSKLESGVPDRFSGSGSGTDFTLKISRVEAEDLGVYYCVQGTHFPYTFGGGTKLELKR
notes: as for B1
Take B8: the A450 avg. is 2.57 in experiment [1]; 1.9 in experiment [2]; 2.07 in [3]; 1.19 in experiment [4]; 2.48 in experiment [5]; 2.58 in experiment [6]. Further, the A450 avg. was 2.33 in experiment [7]; 2.54 in experiment [8]; 1.64 in experiment [9]; 2.08 in experiment [10]; 2.08 in experiment [11].

Usually Kd stands for the equilibrium constant for the complex coming apart. What is called koff is the first-order rate constant of dissociation. By kon is commonly meant the second-order rate constant of association.
